In patent publication US20190218304A1, “POTENTIATING THE EFFECT OF ATP RELEASE” (INNATE PHARMA, priority 2017, published 2019):
Entries after “also recorded” stand apart in the source; their conditions may differ.

Assays:
[1] = target: T1, soluble recombinant human CD39 protein (Homo sapiens, UniProt P49961); experiment: Inhibition of the enzymatic activity of soluble CD39 (Cell Titer Glo); type: biochemical
T1 construct: made in house; host or cells: CHO cells
T1 sequence (P49961 with tags, fused parts or gaps): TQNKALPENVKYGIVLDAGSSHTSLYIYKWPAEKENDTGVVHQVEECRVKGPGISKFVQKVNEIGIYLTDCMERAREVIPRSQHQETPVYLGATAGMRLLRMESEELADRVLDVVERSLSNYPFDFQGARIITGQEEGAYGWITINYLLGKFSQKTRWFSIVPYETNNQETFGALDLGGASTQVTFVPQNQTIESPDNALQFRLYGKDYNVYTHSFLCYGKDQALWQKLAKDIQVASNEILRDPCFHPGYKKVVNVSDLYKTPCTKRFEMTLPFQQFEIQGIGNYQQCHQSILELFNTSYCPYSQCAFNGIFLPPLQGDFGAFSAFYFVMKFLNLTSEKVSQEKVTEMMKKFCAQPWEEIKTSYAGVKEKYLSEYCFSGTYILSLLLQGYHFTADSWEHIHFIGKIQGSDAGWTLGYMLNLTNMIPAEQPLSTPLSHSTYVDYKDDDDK
Procedure: The inhibition by antibodies of the enzymatic activity of soluble CD39 protein produced was evaluated using Cell Titer Glo™ (Promega, reference G7571) that allows assessment of ATP hydrolysis through use of a reagent that generates a luminescent signal proportional to the amount of ATP present. In this way, inhibition of the soluble-CD39-meidatd ATP hydrolysis can be assessed. Briefly, dose ranges of anti-CD39 antibodies from 100 μg/ml to 6×10^−3 μg/ml were incubated with 400 ng/ml of soluble recombinant human CD39 protein having the amino acid sequence described in the Methods section (SEQ ID NO: 39), for 1 h at 37° C. 20 μM ATP was added to the plates for 30 additional minutes at 37° C. before addition of CTG (Cell Titer Glo) reagent. Emitted light was quantified using an Enspire™ luminometer after a short incubation period of 5 min in the dark. Anti-CD39 antibody efficacy was determined by comparing emitted light in presence of antibody with ATP alone (maximal light emission) and ATP together with soluble CD39 protein (minimal light emission).

[2] = target: T2, human CD39-expressing CHO cells (Homo sapiens, UniProt P49961); experiment: Inhibition of the enzymatic activity of cellular CD39, CHO-huCD39 cells; type: cell-based; settings: result in words
T2 construct: expressed in transfected cells; host or cells: CHO cells
T2 sequence (P49961 1-510): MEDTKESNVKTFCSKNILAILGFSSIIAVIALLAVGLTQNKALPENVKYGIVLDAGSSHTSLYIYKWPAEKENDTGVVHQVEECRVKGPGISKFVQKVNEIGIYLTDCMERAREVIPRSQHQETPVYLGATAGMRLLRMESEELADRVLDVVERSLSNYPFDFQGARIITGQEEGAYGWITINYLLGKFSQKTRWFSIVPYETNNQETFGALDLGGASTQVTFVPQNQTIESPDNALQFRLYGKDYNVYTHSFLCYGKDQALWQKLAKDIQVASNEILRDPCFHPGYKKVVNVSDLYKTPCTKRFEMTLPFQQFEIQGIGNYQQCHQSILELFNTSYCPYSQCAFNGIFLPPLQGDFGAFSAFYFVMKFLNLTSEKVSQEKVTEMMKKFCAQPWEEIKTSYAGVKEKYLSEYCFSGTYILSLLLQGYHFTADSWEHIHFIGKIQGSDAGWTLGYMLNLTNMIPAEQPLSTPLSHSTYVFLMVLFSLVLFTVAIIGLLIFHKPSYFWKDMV
Procedure: The inhibition of the CD39 enzymatic activity in CD39-expressing cells by antibodies was evaluated using Cell Titer Glo™ (Promega, reference G7571) that allows assessment of ATP hydrolysis through use of a reagent that generates a luminescent signal proportional to the amount of ATP present. The assay was thus designed to permit assessment of the inhibition of ATP hydrolyzed by CD39 in the cell culture supernatant. Briefly, 5×10^4 Ramos human lymphoma cells, 5×10^3 human CD39-, cynomolgus CD39- and mouse CD39-expressing CHO cells, were incubated 1 hour at 37° C. with anti-CD39 antibodies from 30 μg/ml to 5×10^−4 μg/ml. Cells were then incubated with 20 μM ATP for 1 additional hour at 37° C. Plates were centrifuged for 2 min at 400 g and 50 μl cell supernatant are transferred in a luminescence microplate (white wells). 50 μl CellTiter-Glo® Reagent (CTG) was added to the supernatant and emitted light was quantified after a 5 min incubation in the dark using a Enspire™ luminometer. Anti-CD39 antibody efficacy was determined by comparing emitted light in presence of antibody with ATP alone (maximal light emission) and ATP together with cells (minimal light emission).

human CD39 = target: T3, human CD39 (Homo sapiens, UniProt P49961); experiment: ELISA titration on human CD39; type: binding; settings: coated recombinant protein, OD=450
T3 sequence (P49961 1-510): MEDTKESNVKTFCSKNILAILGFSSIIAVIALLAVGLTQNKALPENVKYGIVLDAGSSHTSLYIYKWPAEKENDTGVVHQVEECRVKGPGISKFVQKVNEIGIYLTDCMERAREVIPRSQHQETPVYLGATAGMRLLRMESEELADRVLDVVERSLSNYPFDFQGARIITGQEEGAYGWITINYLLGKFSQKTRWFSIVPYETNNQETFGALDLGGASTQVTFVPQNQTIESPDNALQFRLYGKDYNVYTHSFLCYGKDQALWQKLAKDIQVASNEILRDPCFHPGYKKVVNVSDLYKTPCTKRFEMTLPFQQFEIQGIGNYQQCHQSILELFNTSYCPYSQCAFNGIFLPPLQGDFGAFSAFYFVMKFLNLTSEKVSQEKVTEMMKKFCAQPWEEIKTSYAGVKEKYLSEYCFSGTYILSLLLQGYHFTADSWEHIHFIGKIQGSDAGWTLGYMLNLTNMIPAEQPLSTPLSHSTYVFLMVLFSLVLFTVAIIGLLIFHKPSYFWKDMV
Procedure: (§1) Wells were washed in TBS Tween 20, and further saturated 2H at RT in TBS Blocking buffer. Dose range concentration of primary antibody was incubated in TBS blocking buffer for 2 h at RT. Wells were washed in TBS Tween 20. […] Optical density was measured on Enspire™ at OD=450.

[3] = tested on: CHO cells expressing cynomolgus (macaca fascicularis) CD39; experiment: Antibody titration by flow cytometry on CHO-cyCD39; type: binding
Procedure: (§2) Cells were incubated with various concentration of unlabeled anti-CD39 antibody from 30 μg/ml to 5×10^−4 μg/ml, for 30 minutes at 4° C. After washes, cells were incubated with Goat anti-mouse H+L labeled secondary antibody for 30 min at 4° C.

[4] = target: T4, CHO cells expressing human CD39 (Homo sapiens, UniProt P49961); experiment: Antibody titration by flow cytometry on CHO-huCD39; type: binding
T4 construct: expressed in transfected cells; host or cells: CHO cells
T4 sequence (P49961 1-510): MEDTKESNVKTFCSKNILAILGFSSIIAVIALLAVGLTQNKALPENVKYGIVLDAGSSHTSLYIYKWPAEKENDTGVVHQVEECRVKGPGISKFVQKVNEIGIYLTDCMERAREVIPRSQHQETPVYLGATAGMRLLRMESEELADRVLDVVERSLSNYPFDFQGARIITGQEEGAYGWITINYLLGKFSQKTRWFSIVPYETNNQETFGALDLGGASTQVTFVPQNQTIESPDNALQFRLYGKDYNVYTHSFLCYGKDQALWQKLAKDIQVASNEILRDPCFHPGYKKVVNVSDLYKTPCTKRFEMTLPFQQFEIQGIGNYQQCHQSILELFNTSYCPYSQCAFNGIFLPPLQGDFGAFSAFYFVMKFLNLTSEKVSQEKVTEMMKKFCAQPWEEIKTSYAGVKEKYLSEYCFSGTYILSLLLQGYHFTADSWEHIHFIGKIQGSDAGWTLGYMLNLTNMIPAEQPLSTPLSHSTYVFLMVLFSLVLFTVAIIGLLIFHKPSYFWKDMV
Procedure: as §2

[5] = target: T5, Human CD39-L3, also known as NTPDase3 or ENTPD3 (Homo sapiens, UniProt O75355); experiment: ELISA titration on CD39-L3; type: binding; settings: coated recombinant protein, OD=450
T5 sequence (O75355 1-529): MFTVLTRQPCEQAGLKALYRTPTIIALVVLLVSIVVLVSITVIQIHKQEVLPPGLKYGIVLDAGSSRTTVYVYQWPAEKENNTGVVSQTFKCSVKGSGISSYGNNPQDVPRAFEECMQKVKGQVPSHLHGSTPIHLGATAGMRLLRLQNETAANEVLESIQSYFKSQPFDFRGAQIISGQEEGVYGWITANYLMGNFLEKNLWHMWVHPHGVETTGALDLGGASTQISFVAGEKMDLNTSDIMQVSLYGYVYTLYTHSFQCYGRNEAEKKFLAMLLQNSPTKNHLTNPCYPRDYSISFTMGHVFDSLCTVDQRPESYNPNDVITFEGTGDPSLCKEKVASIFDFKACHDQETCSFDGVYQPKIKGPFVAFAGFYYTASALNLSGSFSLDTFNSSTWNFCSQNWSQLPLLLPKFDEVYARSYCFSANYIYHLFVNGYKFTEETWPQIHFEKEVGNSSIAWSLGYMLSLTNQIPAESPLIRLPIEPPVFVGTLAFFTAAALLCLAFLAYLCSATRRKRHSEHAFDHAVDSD
Procedure: as §1

B1: I-394: anti-CD39 antibody, VH SEQ ID NO: 3, VL SEQ ID NO: 4; heavy and light chains SEQ ID NOS: 37 and 38 (antibody)
heavy: EVQLQQSGPELVKPGASVKMSCKASGYTFTDYNMHWVKQSHGRTLEWIGYIVPLNGGSTFNQKFKGRATLTVNTSSRTAYMELRSLTSEDSAAYYCARGGTRFAYWGQGTLVTVSAASTKGPSVFPLAPSSKSTSGGTAALGCLVKDYFPEPVTVSWNSGALTSGVHTFPAVLQSSGLYSLSSVVTVPSSSLGTQTYICNVNHKPSNTKVDKRVEPKSCDKTHTCPPCPAPEAEGAPSVFLFPPKPKDTLMISRTPEVTCVVVDVSHEDPEVKFNWYVDGVEVHNAKTKPREEQYNSTYRVVSVLTVLHQDWLNGKEYKCKVSNKALPSSIEKTISKAKGQPREPQVYTLPPSREEMTKNQVSLTCLVKGFYPSDIAVEWESNGQPENNYKTTPPVLDSDGSFFLYSKLTVDKSRWQQGNVFSCSVMHEALHNHYTQKSLSLSPGK
light: DIVLTQSPASLAVSLGQRATISCRASESVDNFGVSFMYWFQQKPGQPPNLLIYGASNQGSGVPARFRGSGSGTDFSLNIHPMEADDTAMYFCQQTKEVPYTFGGGTKLEIKRTVAAPSVFIFPPSDEQLKSGTASVVCLLNNFYPREAKVQWKVDNALQSGNSQESVTEQDSKDSTYSLSSTLTLSKADYEKHKVYACEVTHQGLSSPVTKSFNRGEC
modifications: Chimeric homo sapiens mus musculus
[1]; 400 ng/ml soluble CD39, 20 μM ATP
  maximum inhibition achieved, soluble CD39: 74.9%
[1]; antibody added to hybridoma supernatants negative for sCD39 inhibition
  inhibition of ATPase activity of soluble CD39 when spiked into negative hybridoma supernatants: did not restore the ability of negative supernatants to inhibit ATPase activity of CD39
[1]; antibody purified from the negative supernatant with Protein A coated beads
  inhibition of ATPase activity after purification from negative supernatant: again able to inhibit
[1]; result in words
  inhibition of the enzymatic (ATPase) activity of soluble CD39 protein: strong inhibition; also recorded: inhibit soluble CD39; also recorded: inhibits the enzymatic activity; also recorded: highly potent at blocking the enzymatic activity
[2]
  blocking CD39 enzymatic activity in cells expressing human CD39 (CHO-huCD39): blocks CD39 enzymatic activity; also recorded: highly potent at blocking CD39 enzymatic activity
Human CD39
  binding to human CD39 in ELISA: bound; also recorded: binds to human CD39
[3]
  binding to cells expressing cynomolgus CD39 (CHO-cyCD39): bound; also recorded: binds
[4]
  binding to cells expressing human CD39 (CHO-huCD39): bound; also recorded: binds
[5]
  binding to CD39-L3 in ELISA: not to any of the human isoforms
